Measured values taken from US20210238289A1 (Biogen, published 2021).
Residue numbers refer to the chain shown, from its start. Names and notes keep the numbering of the source.

B1: Chimeric HP1/2 (antibody, human IgG1, V domains shown)
VH: EVQLQQSGAELVKPGASVKLSCTASGFNIKDTYMHWVKQRPEQGLEWIGRIDPASGDTKYDPKFQVKATITADTSSNTAWLQLSSLTSEDTAVYYCADGMWVSTGYALDFWGQGTTVTVSS
VL: SIVMTQTPKFLLVSAGDRVTITCKASQSVTNDVAWYQQKPGQSPKLLIYYASNRYTGVPDRFTGSGYGTDFTFTISTVQAEDLAVYFCQQDYSSPYTFGGGTKLEIK
notes: also called chimerized HP1/2 antibody; chimeric mAb
B2: H1L1 (antibody, V domains shown)
VH: EVQLVQSGAEVKKPGATVKISCKASGFNIKDTYMHWVQQAPGKGLEWMGRIDPASGDTKYDPKFQVRVTITADTSTDTAYMELSSLRSEDTAVYYCADGMWVSTGYALDFWGQGTLVTVSS
VL: SIVMTQSPDSLAVSLGERATINCKASQSVTNDVAWYQQKPGQPPKLLIYYASNRYTGVPDRFSGSGSGTDFTLTISSLQAEDVAVYFCQQDYSSPYTFGQGTKVEIK
notes: also called Design H1 / Design L1
B3: H1L0 (antibody, V domains shown)
VH: B2 VH
VL: B2 VL with S1D, F87Y
notes: also called Design H1 / Design L0
B4: H1L2 (antibody, V domains shown)
VH: B2 VH
VL: B2 VL with S67Y
notes: also called Design H1 / Design L2
B5: EAG2300 (hu5c8 IgG4 chimeric hinge + IgG1 CH3, glycosylated) (antibody)
heavy: QVQLVQSGAEVVKPGASVKLSCKASGYIFTSYYMYWVKQAPGQGLEWIGEINPSNGDTNFNEKFKSKATLTVDKSASTAYMELSSLRSEDTAVYYCTRSDGRNDMDSWGQGTLVTVSSASTKGPSVFPLAPCSRSTSESTAALGCLVKDYFPEPVTVSWNSGALTSGVHTFPAVLQSSGLYSLSSVVTVPSSSLGTKTYTCNVDHKPSNTKVDKRVESKYGPPCPPCPAPPVAGPSVFLFPPKPKDTLMISRTPEVTCVVVDVSQEDPEVQFNWYVDGVEVHNAKTKPREEQFNSTYRVVSVLTVLHQDWLNGKEYKCKVSNKGLPSSIEKTISKAKGQPREPQVYTLPPSRDELTKNQVSLTCLVKGFYPSDIAVEWESNGQPENNYKTTPPVLDSDGSFFLYSKLTVDKSRWQQGNVFSCSVMHEALHNHYTQKSLSLSPG
light: DIVLTQSPATLSVSPGERATISCRASQRVSSSTYSYMHWYQQKPGQPPKLLIKYASNLESGVPARFSGSGSGTDFTLTISSVEPEDFATYYCQHSWEIPPTFGGGTKLEIKRTVAAPSVFIFPPSDEQLKSGTASVVCLLNNFYPREAKVQWKVDNALQSGNSQESVTEQDSKDSTYSLSSTLTLSKADYEKHKVYACEVTHQGLSSPVTKSFNRGEC
modifications: N-terminal Q largely converted to pyroglutamic acid; N-linked G0F/G1F/G2F glycans (mass spectrometry)
notes: also called pEAG2300; copies: 2 + 2
B6: EC331 (hu5c8 IgG4.P T299K, T307P, IgG4 CH2/IgG1 CH3 chimera, aglycosylated) (antibody)
heavy: QVQLVQSGAEVVKPGASVKLSCKASGYIFTSYYMYWVKQAPGQGLEWIGEINPSNGDTNFNEKFKSKATLTVDKSASTAYMELSSLRSEDTAVYYCTRSDGRNDMDSWGQGTLVTVSSASTKGPSVFPLAPCSRSTSESTAALGCLVKDYFPEPVTVSWNSGALTSGVHTFPAVLQSSGLYSLSSVVTVPSSSLGTKTYTCNVDHKPSNTKVDKRVESKYGPPCPPCPAPEFLGGPSVFLFPPKPKDTLMISRTPEVTCVVVDVSQEDPEVQFNWYVDGVEVHNAKTKPREEQFNSKYRVVSVLPVLHQDWLNGKEYKCKVSNKGLPSSIEKTISKAKGQPREPQVYTLPPSRDELTKNQVSLTCLVKGFYPSDIAVEWESNGQPENNYKTTPPVLDSDGSFFLYSKLTVDKSRWQQGNVFSCSVMHEALHNHYTQKSLSLSPG
light: B5 light
modifications: N-terminal Q largely converted to pyroglutamic acid (mass spectrometry)
notes: copies: 2 + 2
B7: YC403 (hu5c8 IgG4.P S228P, T299A, T307P, L309K, D399S, aglycosylated) (antibody)
heavy: B6 heavy with K297A, L307K, R353Q, D354E, L356M, D397S, K407R, Q417E, P443L
light: B5 light
modifications: N-terminal Q largely converted to pyroglutamic acid (mass spectrometry)
notes: copies: 2 + 2
B8: IgG4.P T299A (aglycosylated hu5c8 IgG4.P S228P, T299A) (antibody)
heavy: not shown
light: B5 light
notes: also called agly IgG4.P; IgG4.P agly (S228P, T299A); copies: 2 + 2
B9: IgG1 T299A (aglycosylated hu5c8 IgG1) (antibody)
heavy: not shown
light: B5 light
notes: also called IgG1 agly (T299A); agly IgG1
B10: YC401 (hu5c8 IgG4.P S228P, T299A, T307P, D399S, aglycosylated) (antibody)
heavy: B6 heavy with K297A, R353Q, D354E, L356M, D397S, K407R, Q417E, P443L
light: B5 light
modifications: N-terminal Q largely converted to pyroglutamic acid (mass spectrometry)
notes: copies: 2 + 2
B11: CN645 (hu5c8 IgG1 N297P, T299K) (antibody)
heavy: not shown
light: B5 light
B12: CN647 (hu5c8 IgG1 N297D, T299K) (antibody)
heavy: not shown
light: B5 light
B13: EAG2379 (hu5c8 IgG1 T299E) (antibody)
heavy: not shown
light: B5 light
B14: CN646 (hu5c8 IgG1 N297S, T299K) (antibody)
heavy: not shown
light: B5 light
B15: EAG2377 (hu5c8 IgG1 T299N) (antibody)
heavy: not shown
light: B5 light
B16: EAG2390 (hu5c8 IgG1 T299P) (antibody)
heavy: not shown
light: B5 light
B17: EAG2380 (hu5c8 IgG1 T299F) (antibody)
heavy: not shown
light: B5 light
B18: EAG2389 (hu5c8 IgG1 T299Q) (antibody)
heavy: not shown
light: B5 light
B19: EAG2378 (hu5c8 IgG1 T299R) (antibody)
heavy: not shown
light: B5 light
B20: EAG2412 (hu5c8 S228P/N297Q, IgG4 CH1, IgG4 CH2, IgG1 CH3, aglycosylated) (antibody)
heavy: QVQLVQSGAEVVKPGASVKLSCKASGYIFTSYYMYWVKQAPGQGLEWIGEINPSNGDTNFNEKFKSKATLTVDKSASTAYMELSSLRSEDTAVYYCTRSDGRNDMDSWGQGTLVTVSSASTKGPSVFPLAPCSRSTSESTAALGCLVKDYFPEPVTVSWNSGALTSGVHTFPAVLQSSGLYSLSSVVTVPSSSLGTKTYTCNVDHKPSNTKVDKRVESKYGPPCPPCPAPEFLGGPSVFLFPPKPKDTLMISRTPEVTCVVVDVSQEDPEVQFNWYVDGVEVHNAKTKPREEQFQSTYRVVSVLTVLHQDWLNGKEYKCKVSNKGLPSSIEKTISKAKGQPREPQVYTLPPSRDELTKNQVSLTCLVKGFYPSDIAVEWESNGQPENNYKTTPPVLDSDGSFFLYSKLTVDKSRWQQGNVFSCSVMHEALHNHYTQKSLSLSP
light: B5 light
notes: also called N297Q IgG4-CH2/IgG1-CH3; copies: 2 + 2
B21: H1L3 (antibody, V domains shown)
VH: B2 VH
VL: B2 VL with S67Y, L73F, V85T
notes: also called Design H1 / Design L3

Each binder was assayed against T1, α4β1 (VLA-4) as used in the competition ELISAs (UniProt P13612 34-970; P05556 21-728) (assay: competition ELISA; mixture of mouse HP1/2 with test mAb binding to integrin).

IC50	Binder
0.00164 µM	B1
0.00455 µM	B2
0.00446 µM	B3
0.00134 µM	B4

Each binder was assayed against T2, CD64 (FcγRI) (UniProt P12314 16-288, limits assumed) (assay: solution competition SPR (Biacore); construct titrated into receptor, free receptor read on immobilized IgG1 MAb).
Procedure: (§1) Binding to Fcγ receptors was analyzed using solution affinity surface plasmon resonance (ref Day E S, Cachero T G, Qian F, Sun Y, Wen D, Pelletier M, Hsu Y M, Whitty A. Selectivity of BAFF/BLyS and APRIL for binding to the TNF family receptors BAFFR/BR3 and BCMA. Biochemistry. 2005 Feb. 15; 44(6):1919-31.) The method utilizes conditions of so-called “mass-transport-limited” binding, in which the initial rate of ligand binding (protein binding to the senor chip) is proportional to the concentration of ligand in solution (ref BIApplications Handbook (1994) Chapter 6: Concentration measurement, pp 6-1-6-10, Pharmacia Biosensor AB). Under these conditions, binding of the soluble analyte (protein flowing over chip surface) to the immobilized protein on the chip is fast compared to the diffusion of the analyte into the dextran matrix on the chip surface. Therefore, the diffusion properties of the analyte and the concentration of analyte in solution flowing over the chip surface determine the rate at which analyte binds to the chip. In this experiment, the concentration of free Fc receptor in solution is determined by the initial rate of binding to a CM5 Biacore chip containing an immobilized IgG1 MAb. Into these Fc receptor solutions were titrated the stability engineered constructs (see Table 10.1 below). […] Initial binding rates were obtained from raw sensorgram data (FIG. 14). […] The results are shown in Table 10.1 and reported as the average of two titrations.

IC50	Binder
3020 µM	B5
2600 µM	B6
434 µM	B7
739 µM	B8
205 µM	B9
377 µM	B10

The binders below were run against T2, CD64 (FcγRI) (assay: solution competition SPR (Biacore)).
Procedure: as §1

IC50	Binder
4390 µM	B11
4480 µM	B12
196 µM	B13
3160 µM	B14
586 µM	B15
392 µM	B16
345 µM	B17
455 µM	B18
5970 µM	B19

Each binder was assayed against T3, human C1q (human, UniProt P02745 23-245; P02746 28-253; P02747 29-245) (assay: C1q ELISA).
T3 construct: Bought protein; also called complement factor C1q; Sigma human C1q (C0660)
Procedure: The C1q binding assay was be performed by coating 96 well Maxisorb ELISA plates (Nalge-Nunc Rochester, N.Y., USA) with 50 μl recombinant soluble human CD40 ligand at 10 ug/ml overnight at 4° C. in PBS. The wells were aspirated and washed three times with wash buffer (PBS, 0.05% Tween 20) and blocked for 1 hour with 200 µl/well of block/diluent buffer (0.1 M Na2HP04, pH 7.0, 1 M NaCl, 0.05% Tween 20, 1% gelatin). The antibodies were diluted in block/diluent buffer with 3-fold dilutions and incubated for 2 hours at room temperature.
After aspirating and washing as above, 50 pll/well of sheep anti C1q (Serotec AHP033), diluted 3, 560-fold in block/diluent buffer, were added. After incubation for 1 h at room temperature, the wells were aspirated and washed as above. 50 pll/well of donkey anti-sheep IgG HRP conjugate (Jackson ImmunoResearch 713-035-147) diluted to 1:10,000 in block/diluent were then added, and the wells incubated for 1 h at room temperature.
After aspirating and washing as above, 100 all TMB substrate (420 plM TMB, 0.004% H2O2 in 0.1 M sodium acetate/citric acid buffer, pH 4.9) were added and incubated for 2 min before the reaction was stopped with 100 ul 2 N sulfuric acid. The absorbance was read at 450 nm with a Softmax PRO instrument, and Softmax software was used to determine the relative binding affinity (C value) with a 4-parameter fit.

binding result	Binder
no binding	B11
no binding	B20
no binding	B12
no binding	B14
no binding	B16

The binders below were run against T1, α4β1 (VLA-4) as used in the competition … (assay: competition ELISA; integrin preincubated with test mAb, then murine HP1/2 as competing reagent).

IC50	Binder
0.00106 µM	B1
0.00167 µM	B2
0.00187 µM	B3
0.0009 µM	B4
0.00049 µM	B21
